Data from publication PMC8583942, “An Engineered Thermostable Laccase with Great Ability to Decolorize and Detoxify Malachite Green” (International Journal of Molecular Sciences, 2021).

Substrate: CCn1c(=NN=c2sc3cc(S(=O)(=O)O)ccc3n2CC)sc2cc(S(=O)(=O)O)ccc21
Assay: purified protein
Format: biochemical, Geothermobacter hydrogeniphilus
Conditions: 1 mM CuSO4, 20 mM acetate pH 4.0, 60 °C

B1: Ghlac WT (Geothermobacter hydrogeniphilus) (protein)
chain: MKMARNGKISYLEPEWITGSLRAGFTTRNGGISRAPYNSLNLGLNTEDPRPNVEGNRSTLVRAFGLEVHQLLTVRQVHGNNILVVDEPNPDLSHFQQVECDAIISNQPGMMIGVLVADCYPVLLAAPAQGVVAAVHVGWRGAVAQIIQRTVDALQEQFGVCPEELLAAVGPGIGAHAYEVDRPVRDQFRKAGLPWAGVAEESRLGHWKLDLRETCRRQLLTAGVVRTHIDLAEECTCCHRELLFSHRRDNGRTGRQLGFILLT
notes: codon-optimized in pET-28a(+) NcoI/XhoI; E. coli BL21(DE3)
Km: 1300 µM | kcat: 2.095 s⁻¹
